Experiments:
[1] = target: F protein of BRSV strain RB94 (BRSV (strain RB94)); experiment: cell-based or functional assay
[2] = target: F protein of PVM strain 15 (PVM (strain 15)); experiment: cell-based or functional assay
[3] = target: T1, stabilized form of the full-length pre-fusion RSV F protein (RSV); experiment: surface plasmon resonance
T1 construct: also called pre-fusion F protein; RSV F pre-fusion recombinant protein

[4] = target: T2, F protein of RSV strain A2 (A, 1961 Australia; A/A2/61) (RSV (strain A2), UniProt P03420 26-574); experiment: cell-based or functional assay
[5] = target: F protein of RSV 18537 (B, Washington District of Columbia US, 1962; B/18537/62) (RSV (strain 18537), UniProt P13843 26-574); experiment: cell-based or functional assay
[6] = target: F protein of RSV 9320 (B, Massachusetts US, 1977; B/9320/77) (RSV (strain 9320)); experiment: cell-based or functional assay
[7] = target: T2, F protein of RSV strain A2 (A, 1961 …); experiment: cell-based or functional assay; remark: listed apart in the source
[8] = target: F protein of RSV WV/14617/85 (B, Huntington West Virginia, 1985; B/14617/85) (RSV (strain WV/14617/85)); experiment: cell-based or functional assay

B1: HMB3210v3 (antibody, V domains shown)
VH: EVQLVESGGGLVKPGGSLRLSCAASGFTFSSYSMNWVRQAPGKGLEWVSSISASSSYSDYADSAKGRFTISRDNAKTSLFLQMNSLRAEDTAIYFCARARATGYSSITPYFDIWGQGTLVTVSS
VL: QSVVTQPPSVSGAPGQRVTISCTGSSSNIGAGYDVHWYQQLPGTAPKLLIYDNNNRPSGVPDRFSASKSGTSASLAITGLQAEDEADYYCQSYDRSLSGVFGTGTKVTVL
notes: also called HMB3210 variant 3
**Q.** What does the source list for B1?
**A.** IC50, neutralization of BRSV strain RB94 [1]: 0.01 µg/mL; IC50, neutralization of PVM strain 15 [2]: 0.1 µg/mL; Kd [3]: 0.1 nM

B2: Palivizumab (antibody, V domains shown)
VH: QVTLRESGPALVKPTQTLTLTCTFSGFSLSTSGMSVGWIRQPPGKALEWLADIWWDDKKDYNPSLKSRLTISKDTSKNQVVLKVTNMDPADTATYYCARSMITNWYFDVWGAGTTVTVSS
VL: DIQMTQSPSTLSASVGDRVTITCKCQLSVGYMHWYQQKPGKAPKLLIYDTSKLASGVPSRFSGSGSGTEFTLTISSLQPDDFATYYCFQGSGYPFTFGGGTKLEIK
**Q.** For B2, which “IC50 (ng/ml), microneutralization” value [4] is on record?
**A.** 524 ng/mL

**Q.** What about the “Neutralization IC50” value [5] of the same binder?
**A.** 0.143 µg/mL

**Q.** What about the “Neutralization IC50” value [6] of the same binder?
**A.** 0.069 µg/mL

**Q.** And the “Neutralization IC50” value [7]?
**A.** 0.617 µg/mL

**Q.** And the “Neutralization IC50” value [8]?
**A.** 0.129 µg/mL
